Five molecules from US20250277039A1 (PURDUE RESEARCH FOUNDATION, published 2025) can be followed below.

Experiment [1] addresses T1, His-tagged mouse PD-L1 protein (mouse, UniProt Q9EP73 19-238, limits assumed).
T1 construct: also called mPD-L1-His; mPD-L1; not shown: His tag
Description: plate assay: His-tagged PD-L1 on Ni-NTA 96-well plate, antibody, HRP anti-canine IgG secondary, OD450. As to the method:
12C and 3C. with human PD-L1 (hPD-L1), mPD-L1, and cPD-L1 proteins. His-tagged human PD-L1, mPD-L1, or cPD-L1 protein was immobilized on the Ni-NTA 96-well plate, and anti-cPD-L1 Abs. 12C or 3C. with HRP-conjugated anti-canine IgG-specific secondary was added. OD450 was measured to quantify the amount of bound PD-L1 antibodies (Ab=antibody).

Experiment [2] deals with T2, cPD-L1 on MB49^cPD-L1 cells.
T2 construct: also called canine PD-L1 (Flag-cPD-L1) on mouse PD-L1 knockout MB49 cells
T2 chain: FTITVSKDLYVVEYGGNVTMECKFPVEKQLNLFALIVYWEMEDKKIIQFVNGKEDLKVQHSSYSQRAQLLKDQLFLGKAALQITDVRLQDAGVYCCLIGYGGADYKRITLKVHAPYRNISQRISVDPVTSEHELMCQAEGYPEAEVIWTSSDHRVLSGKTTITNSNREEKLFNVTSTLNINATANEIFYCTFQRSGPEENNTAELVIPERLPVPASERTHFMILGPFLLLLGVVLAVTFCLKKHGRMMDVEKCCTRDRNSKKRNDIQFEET
Nature of the experiment: flow cytometry of MB49^cPD-L1 cells. As to the method:
(§1) For flow cytometry analysis, MB49 or BT549 cells were washed twice with ice-cold cell staining buffer (Biolegend, San Diego, CA) and stained with cIgG control, or cPD-L1 12C10E4 cIgG or cPD-L1 A12C10E4 cIgG for 1 hour at 4° C. After three washes with staining buffer, cell samples were stained with Alexa Fluor 488-conjugated anti-canine IgG specific secondary antibody for 30 minutes at 4° C. Cell samples were loaded on BD LSRFortessa (BD, Franklin Lakes, NJ) for analysis. Data analysis was performed on FlowJo v9 software (BD). Every hour, green fluorescent signal was measured and quantified by IncuCyte S3 (Sartorius. Goettingen, Germany). The Image analysis was performed according to the manufacturer's protocol.

The target in experiment [3] is T3, His-tagged canine PD-L1 protein (6X His tagged extracellular domain of cPD-L1) (canine, UniProt E2RKZ5 19-236).
T3 construct: also called cPD-L1-His; canine PD-L1-His
T3 sequence: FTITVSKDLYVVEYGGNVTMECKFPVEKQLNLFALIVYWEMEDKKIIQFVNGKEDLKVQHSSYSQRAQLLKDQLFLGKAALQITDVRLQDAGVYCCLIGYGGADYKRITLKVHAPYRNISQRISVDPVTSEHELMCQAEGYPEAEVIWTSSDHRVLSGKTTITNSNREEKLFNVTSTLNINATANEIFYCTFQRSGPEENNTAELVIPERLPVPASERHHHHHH
Description: Octet BLI (RED384): His-tagged cPD-L1 loaded on an NTA biosensor at 200 nM, antibody at 50, 100, 200 nmol/L. As to the method:
The binding affinity (KD) of the chimeric cPD-L1/cPD-L1 antibody (12C10E4) for canine PD-L1 was determined by Octet Biolayer interferometry (BLI) using the Octet RED384 system (Sartorius. Bohemia. NY). Briefly. His-tagged cPD-L1 protein was loaded on the Octet NTA biosensor at a concentration of 200 nM. The association step was performed by submerging the sensors in three concentrations of the chimeric cPD-L1/cPD-L1 antibody (12C10E4) (50, 100, 200 nmol/L) in the kinetic buffer. Dissociation was performed and monitored in fresh kinetic buffer. Data were analyzed with Octet Analysis HT software (Sartorius. Bohemia. NY), […].

For experiment [4], the target named is T3, His-tagged canine PD-L1 protein (6X His …). Nature of the experiment: cell-free blockade assay: canine PD-L1-His on Ni-NTA plate; blocked ligand PD-1-Fc (cPD-1-hFc), HRP anti-human IgG Fc secondary, OD450. As to the method:
For the […] assays. Pierce Ni-NTA coated 96-well plates (ThermoFisher Scientific. Waltham. MA) were coated with canine PD-L1-His proteins and PD-1-Fc proteins (human Fc-protein conjugated) (SinoBiological US. Wayne. PA), and anti-human IgG Fc specific horseradish peroxidase (HRP)-conjugated secondary antibodies (SouthernBiotech. Birmingham. AL) were added, followed by the addition of anti-canine PD-L1, 12C10E4 or cPD-L1 A12C10E4 antibodies. The bound PD-1-Fc protein was quantified by measuring OD450 value with a Synergy LX multi-mode reader.

In experiment [5] the target is T4, canine PD-L1 (Flag-cPD-L1) expressed on BT549 cells (canine, UniProt E2RKZ5 19-289).
T4 construct: Flag-tagged (pGIPZ-shPD-L1/Flag-cPD-L1); Endogenous human PD-L1 was knocked down in the BT549 cells; also called membrane-localized cPD-L1 protein; BT549^cPD-L1 cells
T4 sequence: T2 chain
Description: cPD-1/cPD-L1 blockade assay on BT549^cPD-L1 cells; blocked ligand cPD-1-hFc; green fluorescence by IncuCyte S3. As to the method: (§2) To measure PD-1 protein on the cells. […] cells were seeded per well in 96-well plates. The plates were then incubated with cIgG control (Rockland Immunochemicals. Pottstown, PA). 12C10E4 antibody or cPD-L1 A12C10E4 antibody, cPD-1-hFc protein (human Fc protein conjugated: Sino Biological US. Wayne. PA), and/or anti-human Alexa Fluor 488 dye conjugate (ThermoFisher Scientific. Waltham. MA). Every 3 hours green fluorescent signal was measured and quantified by IncuCyte S3 (Sartorius. Goettingen. Germany) (FIG. 5B). The image analysis was performed according to the manufacturer's protocol.

Experiment [6] has as its target T5, mPD-L1 on MB49 cells (Mus musculus, UniProt Q9EP73).
T5 construct: endogenous, membrane-located, on MB49 parental mouse bladder cancer cells; also called endogenous mouse PD-L1 on MB49 parental cells
Description: flow cytometry of MB49 parental cells, which stain for mPD-L1 in the left panel. As to the method:
as §1

In experiment [7] the target is T4, canine PD-L1 (Flag-cPD-L1) expressed on …. Nature of the experiment: blockade of cPD-1-hFc binding to cPD-L1, bound cPD-1 quantified by green fluorescence on IncuCyte S3 (FIG. 5E). As to the method:
as §2

Experiment [8] addresses T3, His-tagged canine PD-L1 protein (6X His …). Nature of the experiment: cell-free ELISA-based binding assay on His-tagged extracellular domain of cPD-L1, bound antibody as OD450.
The target of experiment [9] is T1, His-tagged mouse PD-L1 protein. Description: plate assay: His-tagged PD-L1 on Ni-NTA 96-well plate, PD-1-hFc, HRP anti-human IgG Fc secondary, OD450 given as fold ratio. As to the method:
(§3) Histidine (His)-tagged canine or mPD-L1 protein was immobilized on the nickel-nitriloacetic acid (Ni-NTA) 96-well plate and horseradish peroxidase (HRP)-conjugated anti-human IgG Fc-specific secondary with mPD-1-hFc or cPD-1-hFc protein was added. OD450 was measured to quantify the amount of bound PD-1 protein.

The target is the same in experiment [10]. Nature of the experiment: blocking plate assay: mPD-L1-His on Ni-NTA plate, cPD-1-hFc or mPD-1-hFc, HRP anti-human IgG Fc secondary; 12C concentration not given. As to the method: as §3

T1 sequence (Q9EP73 19-238 limits assumed): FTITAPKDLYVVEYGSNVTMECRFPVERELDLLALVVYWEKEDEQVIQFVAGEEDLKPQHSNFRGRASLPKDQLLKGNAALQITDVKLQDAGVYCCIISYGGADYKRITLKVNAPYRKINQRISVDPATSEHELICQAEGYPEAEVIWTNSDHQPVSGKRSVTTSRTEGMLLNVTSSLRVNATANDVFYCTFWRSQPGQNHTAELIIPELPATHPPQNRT
T5 sequence (Q9EP73 19-290 limits assumed): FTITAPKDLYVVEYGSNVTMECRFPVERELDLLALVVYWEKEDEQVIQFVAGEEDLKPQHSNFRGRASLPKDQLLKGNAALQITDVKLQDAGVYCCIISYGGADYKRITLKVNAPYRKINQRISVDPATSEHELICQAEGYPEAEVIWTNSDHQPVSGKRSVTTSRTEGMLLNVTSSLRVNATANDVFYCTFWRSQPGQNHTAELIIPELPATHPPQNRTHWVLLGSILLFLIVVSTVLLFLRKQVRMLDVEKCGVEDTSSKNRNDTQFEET

B1: cPD-L1 3C chimeric antibody clone (3C8D3 variable domains, canine constant domains) (antibody, V domains shown)
VH: EVQLQQSGPELVKPGASVKMSCKASGYTFTDYVLHWVRQTNGKSLEWIGEINPSNGDTYYNQKFKGKATLTVDTSSSTAYMQLTTLTSEDSAVYYCARSDYSNYVGFAYWGQGTLVTVSA
VL: DIVMTQSHKFMSTSVGDRVSITCKVSQDVGTAVAWYQQKPGQCPKRLIYWTSTRHTGVPDRFTGSGSGTDFTLTISNVQSEDLVDYFCQQYSSYPLTFGGGTKLELKR
notes: also called cPD-L1 3C8D3
As for B1, the binding result in [1] is given as “no binding”.

B2: cPD-L1 12C10E4 chimeric antibody (mouse variable domains, canine IgG2 / canine kappa constant domains) (antibody)
heavy: QVQLKQSGPGLVQPSQSLSITCTISGFSLTSFGVHWVRQSPGKGLEWLGVIWSGGSTDYNAAFTSRLSINKDNSKSQVFFKMNSLQADDTAIYYCARGGGPDWYFDVWGTGTTVTVSSASTTAPSVFPLAPSCGSTSGSTVALACLVSGYFPEPVTVSWNSGSLTSGVHTFPSVLQSSGLYSLSSMVTVPSSRWPSETFTCNVAHPASKTKVDKPVPKRENGRVPRPPDCPKCPAPEMLGGPSVFIFPPKPKDTLLIARTPEVTCVVVDLDPEDPEVQISWFVDGKQMQTAKTQPREEQFNGTYRVVSVLPIGHQDWLKGKQFTCKVNNKALPSPIERTISKARGQAHQPSVYVLPPSREELSKNTVSLTCLIKDFFPPDIDVEWQSNGQQEPESKYRTTPPQLDEDGSYFLYSKLSVDKSRWQRGDTFICAVMHEALHNHYTQKSLSHSPGK
light: DIVLTQSPASLAVSLGQRATISCRASESVEYYGTSLMQWYQQKPGQPPKLLIFAASNVKSGVPARFSGSGSGTDFSLNIHPVEEDDIAMYFCQQSGKVPHTFGGGTKLEIKRSMEIKRTDAQPAVYLFQPSPDQLHTGSASVVCLLNSFYPKDINVKWKVDGVIQDTGIQESVTEQDKDSTYSLSSTLTMSSTEYLSHELYSCEITHKSLPSTLIKSFQRSECQRVD
notes: Expressed in ExpiCHO-S cells from pTRIOZ-cIgG2-12C10E4; also called 12C chimeric antibody; mAb 12C
As for B2, the binding result in [1] is given as “no binding”; in experiment [2] it was “binds”; in experiment [6] it was “no binding”. Further, binding in experiment [3] was characterised by a dissociation constant (Kd) of 8.6 nM. For the same molecule, the “IC50 (read off the curve)” value in experiment [4] is roughly 0.05 µg/mL; in experiment [5], roughly 0.06 µg/mL. Besides, the EC50 in [7] stood at 0.419 µg/mL. Further, the “EC50 (read off the curve)” value in experiment [8] is roughly 0.2 µg/mL.

B3: cPD-L1 A12C10E4 chimeric antibody (antibody)
heavy: B2 heavy
light: DIVLTQSPASLAVSLGQRATISCRASESVEYYGTSLMQWYQQKPGQPPKLLIFAASNVKSGVPARFSGSGSGTDFSLNIHPVEEDDIAMYFCQQSGKVPHTFGGGTKLEIKRSMADAQPAVYLFQPSPDQLHTGSASVVCLLNSFYPKDINVKWKVDGVIQDTGIQESVTEQDKDSTYSLSSTLTMSSTEYLSHELYSCEITHKSLPSTLIKSFQRSECQRVD
notes: also called mAb A12C; cPD-L1 A12C10E4 cIgG
With B3, in experiment [4], the “IC50 (read off the curve)” value is roughly 0.05 µg/mL. For the same molecule, the “EC50 (read off the curve)” value in experiment [8] was roughly 0.2 µg/mL.

B4: mPD-1-hFc protein (Fc fusion, mouse, UniProt Q02242 25-167, looked up)
chain: LEVPNGPWRSLTFYPAWLTVSEGANATFTCSLSNWSEDLMLNWNRLSPSNQTEKQAAFCNGLSQPVQDARFQIIQLPNRHDFHMNILDTRRNDSGIYLCGAISLHPKAKIEESPGAELVVTERILETSTRYPSPSPKPEGRFQ
notes: also called mouse PD-1; not shown: human Fc
As to B4, the binding result in experiment [9] is reported as “binds”.

B5: murine monoclonal antibody cPD-L1 12C10E4 from the hybridoma (antibody, mouse IgG1, V domains shown)
VH: QVQLKQSGPGLVQPSQSLSITCTISGFSLTSFGVHWVRQSPGKGLEWLGVIWSGGSTDYNAAFTSRLSINKDNSKSQVFFKMNSLQADDTAIYYCARGGGPDWYFDVWGTGTTVTVSS
VL: DIVLTQSPASLAVSLGQRATISCRASESVEYYGTSLMQWYQQKPGQPPKLLIFAASNVKSGVPARFSGSGSGTDFSLNIHPVEEDDIAMYFCQQSGKVPHTFGGGTKLEIK
notes: Hybridoma antibody from A/J mice immunized with the cPD-L1 extracellular domain-human Fc; also called mAb 12C; murine 12C antibody
For B5, the binding result in [10] is on record as “no binding”.
